# T1: Gid2 (RING subunit of the GID E3 catalytic module) (S. cerevisiae, UniProt Q12508 1-421)
# T1 sequence: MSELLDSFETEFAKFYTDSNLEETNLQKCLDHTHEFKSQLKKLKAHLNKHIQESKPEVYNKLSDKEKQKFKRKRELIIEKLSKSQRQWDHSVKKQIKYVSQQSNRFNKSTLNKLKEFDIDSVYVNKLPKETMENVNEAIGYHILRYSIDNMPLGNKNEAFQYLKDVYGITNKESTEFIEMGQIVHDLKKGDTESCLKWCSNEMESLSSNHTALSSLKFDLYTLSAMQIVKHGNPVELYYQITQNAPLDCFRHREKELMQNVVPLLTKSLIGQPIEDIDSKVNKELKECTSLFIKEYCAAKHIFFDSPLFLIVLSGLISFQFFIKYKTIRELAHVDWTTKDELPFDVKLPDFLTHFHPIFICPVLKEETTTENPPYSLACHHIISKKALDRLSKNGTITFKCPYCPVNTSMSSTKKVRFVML
# B1: Ubc8 C85K, insect cell-expressed and phosphorylated (the E2 chain of the Ubc8~ubiquitin mimic) (enzyme, S. cerevisiae)
# chain: MSSSKRRIETDVMKLLMSDHQVDLINDSMQEFHVKFLGPKDTPYENGVWRLHVELPDNYPYKSPSIGFVNKIFHPNIDIASGSIKLDVINSTWSPLYDLINIVEWMIPGLLKEPNGSDPLNNEAATLQLRDKKLYEEKIKEYIDKYATKEKYQQMFGGDNDSDDSDSGGDLQEEDSDSDEDMDGTGVSSGDDSVDELSEDLSDIDVSDDDDYDEVANQ
# modifications: heterogeneously phosphorylated C-terminal extension (phosphoserines 202 and 207 modelled); K85 isopeptide-bonded to ubiquitin
# Molecular target: T1, Gid2 (RING subunit of the GID E3 …)
# Experiment: cryo-EM structure
binder,measurement,value
B1,binding result,binds
